{"source": "paper doi:10.1101/2025.05.01.651538", "key": {"[1]": {"target": "acidic patch mutant (APM) H3K4me3 147bp nucleosome (human)"}, "[2]": {"target": "acidic patch mutant (APM) unmodified 147bp nucleosome (H2A E61A, E64S, N68A, D72S, N89A, D90A, E91S) (human)", "experiment": "native gel or EMSA; direct binding: 100 nM nucleosome, varying concentrations of KDM5A; 50 mM HEPES pH 7.5, 50 mM KCl, 1 mM BME, 0.01% Tween-20, 0.01% BSA, 5% sucrose; 1 hour on ice; 7.5% gel at 4°C, SYBR gold; fit with Hill slope"}, "[3]": {"target": "acidic patch mutant (APM) H3K4me3 147bp nucleosome (human)", "experiment": "native gel or EMSA; direct binding: 100 nM nucleosome, varying concentrations of KDM5A; 50 mM HEPES pH 7.5, 50 mM KCl, 1 mM BME, 0.01% Tween-20, 0.01% BSA, 5% sucrose; 1 hour on ice; 7.5% gel at 4°C, SYBR gold; fit with Hill slope"}, "[4]": {"target": "acidic patch mutant (APM) unmodified 147bp nucleosome (H2A E61A, E64S, N68A, D72S, N89A, D90A, E91S)", "experiment": "EMSA", "conditions": "0-32 µM KDM5A^MutR titrated against APM 147bp nucleosome"}, "KDM5ACAT": {"system": "KDM5ACAT", "experiment": "EMSA", "conditions": "Nucleosome EMSA: 100 nM nucleosome, 50 mM HEPES pH 7.5, 50 mM KCl, 1 mM BME, 0.01% Tween-20, 0.01% BSA, 5% sucrose, 1 h on ice, DNA EMSA: 100 nM DNA, TE …"}}, "note": "pKd: −log10 of the molar value."}
{"substance": "KDM5A^CAT (KDM5A 1–801, minimal catalytically active construct) (from UniProt P29375 1-801) (domain or fragment)", "values": [{"measurement": "fold decrease in demethylation of H3K4me3 on APM 147bp nucleosomes relative to wild-type nucleosomes, western blot, single turnover (5 μM KDM5A enzyme, 50 nM substrate)", "setting": "[1]", "value": 9, "unit": "fold"}, {"measurement": "fold loss in affinity relative to wild-type 147bp nucleosome", "setting": "[2]", "value": 3, "unit": "fold"}, {"measurement": "fold lower affinity relative to wild-type H3K4me3 nucleosome", "setting": "[3]", "value": 2, "unit": "fold"}]}
{"substance": "KDM5A^CAT (KDM5A 1–801, minimal catalytically active construct) (from UniProt P29375) R210A; R217A; R219A; R220A; R232A; R264A; R265A; R266A; R271A; R280A; R282A", "values": [{"measurement": "pKd", "setting": "[4]", "value": 4.85}]}
{"substance": "147bp nucleosome, wild-type unmodified", "values": [{"measurement": "binding signal", "setting": "KDM5ACAT; scale: fold higher affinity than APM 147bp nucleosome", "value": 3}]}
{"substance": "147bp APM nucleosome, unmodified", "values": [{"measurement": "binding signal", "setting": "KDM5ACAT; H2A E61A;E64S;N68A;D72S;N89A;D90A;E91S, scale: fold loss in affinity vs wild-type 147bp nucleosome", "value": 3}]}
{"substance": "H3K4me3 APM nucleosome", "values": [{"measurement": "binding signal", "setting": "KDM5ACAT; H3K4me3, H2A E61A;E64S;N68A;D72S;N89A;D90A;E91S, scale: fold lower affinity vs wild-type H3K4me3 nucleosome", "value": 2}]}
